{"source": "patent US20190016825A1", "key": {"biotin-PCSK9-his [1]": {"target": "biotin-PCSK9-his (UniProt Q8NBP7)", "assay": "competitive ELISA, one antibody coated, biotin-PCSK9-his plus 50-fold competitor; competitor: 21B12"}, "biotin-PCSK9-his [2]": {"target": "biotin-PCSK9-his (UniProt Q8NBP7)", "assay": "competitive ELISA, one antibody coated, biotin-PCSK9-his plus 50-fold competitor; competitor: h001-4"}}, "data": [{"substance": "21B12 (U.S. Pat. No. 8,030,457B2) (antibody)", "values": [{"measurement": "IR (%)", "setting": "biotin-PCSK9-his [1]", "result": 97.8, "unit": "%"}, {"measurement": "IR (%)", "setting": "biotin-PCSK9-his [2]", "result": 3.86, "unit": "%"}]}]}
